Test results from publication PMC4741384 (2016).

B1: full-length mCherry-lacR-MDC1 [human] / FN-TNKS1 (flag tag and NLS signal, pCDNA 3.1) [human] (parent complex)
chain 1: MEDTQAIDWDVEEEEETEQSSESLRCNVEPVGRLHIFSGAHGPEKDFPLHLGKNVVGRMPDCSVALPFPSISKQHAEIEILAWDKAPILRDCGSLNGTQILRPPKVLSPGVSHRLRDQELILFADLLCQYHRLDVSLPFVSRGPLTVEETPRVQGETQPQRLLLAEDSEEEVDFLSERRMVKKSRTTSSSVIVPESDEEGHSPVLGGLGPPFAFNLNSDTDVEEGQQPATEEASSAARRGATVEAKQSEAEVVTEIQLEKDQPLVKERDNDTKVKRGAGNGVVPAGVILERSQPPGEDSDTDVDDDSRPPGRPAEVHLERAQPFGFIDSDTDAEEERIPATPVVIPMKKRKIFHGVGTRGPGAPGLAHLQESQAGSDTDVEEGKAPQAVPLEKSQASMVINSDTDDEEEVSAALTLAHLKESQPAIWNRDAEEDMPQRVVLLQRSQTTTERDSDTDVEEEELPVENREAVLKDHTKIRALVRAHSEKDQPPFGDSDDSVEADKSSPGIHLERSQASTTVDINTQVEKEVPPGSAIIHIKKHQVSVEGTNQTDVKAVGGPAKLLVVSLEEAWPLHGDCETDAEEGTSLTASVVADVRKSQLPAEGDAGAEWAAAVLKQERAHEVGAQGGPPVAQVEQDLPISRENLTDLVVDTDTLGESTQPQREGAQVPTGREREQHVGGTKDSEDNYGDSEDLDLQATQCFLENQGLEAVQSMEDEPTQAFMLTPPQELGPSHCSFQTTGTLDEPWEVLATQPFCLRESEDSETQPFDTHLEAYGPCLSPPRAIPGDQHPESPVHTEPMGIQGRGRQTVDKVMGIPKETAERVGPERGPLERETEKLLPERQTDVTGEEELTKGKQDREQKQLLARDTQRQESDKNGESASPERDRESLKVEIETSEEIQEKQVQKQTLPSKAFEREVERPVANRECDPAELEEKVPKVILERDTQRGEPEGGSQDQKGQASSPTPEPGVGAGDLPGPTSAPVPSGSQSGGRGSPVSPRRHQKGLLNCKMPPAEKASRIRAAEKVSRGDQESPDACLPPTVPEAPAPPQKPLNSQSQKHLAPPPLLSPLLPSIKPTVRKTRQDGSQEAPEAPLSSELEPFHPKPKIRTRKSSRMTPFPATSAAPEPHPSTSTAQPVTPKPTSQATRSRTNRSSVKTPEPVVPTAPELQPSTSTDQPVTSEPTSQVTRGRKSRSSVKTPETVVPTALELQPSTSTDRPVTSEPTSQATRGRKNRSSVKTPEPVVPTAPELQPSTSTDQPVTSEPTYQATRGRKNRSSVKTPEPVVPTAPELRPSTSTDRPVTPKPTSRTTRSRTNMSSVKTPETVVPTAPELQISTSTDQPVTPKPTSRTTRSRTNMSSVKNPESTVPIAPELPPSTSTEQPVTPEPTSRATRGRKNRSSGKTPETLVPTAPKLEPSTSTDQPVTPEPTSQATRGRTNRSSVKTPETVVPTAPELQPSTSTDQPVTPEPTSQATRGRTDRSSVKTPETVVPTAPELQASASTDQPVTSEPTSRTTRGRKNRSSVKTPETVVPAAPELQPSTSTDQPVTPEPTSRATRGRTNRSSVKTPESIVPIAPELQPSTSRNQLVTPEPTSRATRCRTNRSSVKTPEPVVPTAPEPHPTTSTDQPVTPKLTSRATRRKTNRSSVKTPKPVEPAASDLEPFTPTDQSVTPEAIAQGGQSKTLRSSTVRAMPVPTTPEFQSPVTTDQPISPEPITQPSCIKRQRAAGNPGSLAAPIDHKPCSAPLEPKSQASRNQRWGAVRAAESLTAIPEPASPQLLETPIHASQIQKVEPAGRSRFTPELQPKASQSRKRSLATMDSPPHQKQPQRGEVSQKTVIIKEEEEDTAEKPGKEEDVVTPKPGKRKRDQAEEEPNRIPSRSLRRTKLNQESTAPKVLFTGVVDARGERAVLALGGSLAGSAAEASHLVTDRIRRTVKFLCALGRGIPILSLDWLHQSRKAGFFLPPDEYVVTDPEQEKNFGFSLQDALSRARERRLLEGYEIYVTPGVQPPPPQMGEIISCCGGTYLPSMPRSYKPQRVVITCPQDFPHCSIPLRVGLPLLSPEFLLTGVLKQEAKPEAFVLSPLEMSST
chain 2: MAASRRSQHHHHHHQQQLQPAPGASAPPPPPPPPLSPGLAPGTTPASPTASGLAPFASPRHGLALPEGDGSRDPPDRPRSPDPVDGTSCCSTTSTICTVAAAPVVPAVSTSSAAGVAPNPAGSGSNNSPSSSSSPTSSSSSSPSSPGSSLAESPEAAGVSSTAPLGPGAAGPGTGVPAVSGALRELLEACRNGDVSRVKRLVDAANVNAKDMAGRKSSPLHFAAGFGRKDVVEHLLQMGANVHARDDGGLIPLHNACSFGHAEVVSLLLCQGADPNARDNWNYTPLHEAAIKGKIDVCIVLLQHGADPNIRNTDGKSALDLADPSAKAVLTGEYKKDELLEAARSGNEEKLMALLTPLNVNCHASDGRKSTPLHLAAGYNRVRIVQLLLQHGADVHAKDKGGLVPLHNACSYGHYEVTELLLKHGACVNAMDLWQFTPLHEAASKNRVEVCSLLLSHGADPTLVNCHGKSAVDMAPTPELRERLTYEFKGHSLLQAAREADLAKVKKTLALEIINFKQPQSHETALHCAVASLHPKRKQVTELLLRKGANVNEKNKDFMTPLHVAAERAHNDVMEVLHKHGAKMNALDTLGQTALHRAALAGHLQTCRLLLSYGSDPSIISLQGFTAAQMGNEAVQQILSESTPIRTSDVDYRLLEASKAGDLETVKQLCSSQNVNCRDLEGRHSTPLHFAAGYNRVSVVEYLLHHGADVHAKDKGGLVPLHNACSYGHYEVAELLVRHGASVNVADLWKFTPLHEAAAKGKYEICKLLLKHGADPTKKNRDGNTPLDLVKEGDTDIQDLLRGDAALLDAAKKGCLARVQKLCTPENINCRDTQGRNSTPLHLAAGYNNLEVAEYLLEHGADVNAQDKGGLIPLHNAASYGHVDIAALLIKYNTCVNATDKWAFTPLHEAAQKGRTQLCALLLAHGADPTMKNQEGQTPLDLATADDIRALLIDAMPPEALPTCFKPQATVVSASLISPASTPSCLSAASSIDNLTGPLAELAVGGASNAGDGAAGTERKEGEVAGLDMNISQFLKSLGLEHLRDIFETEQITLDVLADMGHEELKEIGINAYGHRHKLIKGVERLLGGQQGTNPYLTFHCVNQGTILLDLAPEDKEYQSVEEEMQSTIREHRDGGNAGGIFNRYNVIRIQKVVNKKLRERFCHRQKEVSEENHNHHNERMLFHGSPFINAIIHKGFDERHAYIGGMFGAGIYFAENSSKSNQYVYGIGGGTGCPTHKDRSCYICHRQMLFCRVTLGKSFLQFSTMKMAHAPPGHHSVIGRPSVNGLAYAEYVIYRGEQAYPEYLITYQIMKPEAPSQTATAAEQKT

Variants of: B1
Test: lacO-array tethering colocalization (immunofluorescence) in U2OS17 cells; N = 100 cells in each experiment, three independent experiments; read off a plot

Row | screen value | Variant
1 | ~30% | chain 1 P951A, chain 1 E952A, chain 1 G953A
2 | ~3.7% | chain 1 P951A, chain 1 E952A, chain 1 G953A, chain 1 L1996A, chain 1 E1997A, chain 1 G1998A
3 | ~27% | chain 1 L1996A, chain 1 E1997A, chain 1 G1998A
